# Where no end group is shown, it is not given here. [ ]: non-standard residue; d: D form. The star is where a group is joined. Octanoyl = CCCCCCCC(=O)*; Dap = NC[C@H](N)C(=O)O
# B1: compound 12 (peptide)
# peptide: GSXFLSPEHQRVQQRKESKKPPAKLQPR
# modifications: X^b at position 3: 2,3-di-amino-propionic acid in place of Ser3, its beta-amino group acylated with n-octanoic acid
# B2: compound 18 (peptide)
# peptide: GSS(Octanoyl)FLSPEHQRVQQRKESKKPPA-NH2
# modifications: N-terminus assumed
# SMILES: CCCCCCCC(=O)OC[C@H](NC(=O)[C@H](CO)NC(=O)CN)C(=O)N[C@@H](Cc1ccccc1)C(=O)N[C@@H](CC(C)C)C(=O)N[C@@H](CO)C(=O)N1CCC[C@H]1C(=O)N[C@@H](CCC(=O)O)C(=O)N[C@@H](Cc1c[nH]cn1)C(=O)N[C@@H](CCC(N)=O)C(=O)N[C@@H](CCCNC(=N)N)C(=O)N[C@H](C(=O)N[C@@H](CCC(N)=O)C(=O)N[C@@H](CCC(N)=O)C(=O)N[C@@H](CCCNC(=N)N)C(=O)N[C@@H](CCCCN)C(=O)N[C@@H](CCC(=O)O)C(=O)N[C@@H](CO)C(=O)N[C@@H](CCCCN)C(=O)N[C@@H](CCCCN)C(=O)N1CCC[C@H]1C(=O)N1CCC[C@H]1C(=O)N[C@@H](C)C(N)=O)C(C)C
# B3: compound 21 (peptide)
# peptide: GSS(Octanoyl)FL-NH2
# modifications: N-terminus assumed
# SMILES: CCCCCCCC(=O)OC[C@H](NC(=O)[C@H](CO)NC(=O)CN)C(=O)N[C@@H](Cc1ccccc1)C(=O)N[C@@H](CC(C)C)C(N)=O
# B4: compound 19 (peptide)
# peptide: GSS(Octanoyl)FLSPEHQRVQQRKES-NH2
# modifications: N-terminus assumed
# SMILES: CCCCCCCC(=O)OC[C@H](NC(=O)[C@H](CO)NC(=O)CN)C(=O)N[C@@H](Cc1ccccc1)C(=O)N[C@@H](CC(C)C)C(=O)N[C@@H](CO)C(=O)N1CCC[C@H]1C(=O)N[C@@H](CCC(=O)O)C(=O)N[C@@H](Cc1c[nH]cn1)C(=O)N[C@@H](CCC(N)=O)C(=O)N[C@@H](CCCNC(=N)N)C(=O)N[C@H](C(=O)N[C@@H](CCC(N)=O)C(=O)N[C@@H](CCC(N)=O)C(=O)N[C@@H](CCCNC(=N)N)C(=O)N[C@@H](CCCCN)C(=O)N[C@@H](CCC(=O)O)C(=O)N[C@@H](CO)C(N)=O)C(C)C
# Biological target: T1, human GHS receptor 1a (human, UniProt Q92847 1-366)
# Experiment: cell-based or functional assay
# T1 sequence (Q92847 whole entry): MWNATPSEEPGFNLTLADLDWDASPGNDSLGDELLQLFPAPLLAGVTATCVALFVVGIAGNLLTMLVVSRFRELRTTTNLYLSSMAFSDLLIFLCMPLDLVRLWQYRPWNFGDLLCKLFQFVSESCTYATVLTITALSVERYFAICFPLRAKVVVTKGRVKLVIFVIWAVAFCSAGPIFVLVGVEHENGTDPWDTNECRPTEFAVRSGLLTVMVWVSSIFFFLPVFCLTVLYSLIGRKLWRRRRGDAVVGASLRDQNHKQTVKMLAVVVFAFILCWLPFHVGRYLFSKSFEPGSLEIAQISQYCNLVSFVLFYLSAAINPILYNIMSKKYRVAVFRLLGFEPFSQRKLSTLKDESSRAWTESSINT
Binder,Functional Assay EC50 (aequorin bioluminescence) [nM],% activation at 10 µM relative to ghrelin [%]
B1,31,–
GSS(Octanoyl)FLSPEHQRVQQ [compound 13],17,97
GS[Dap](Octanoyl)FLSPEHQRVQQ [compound 14],38,102

# Biological target: T1, human GHS receptor 1a
# Experiment: cell-based or functional assay
# Remark: another data set of the same source
Binder,% activation at 10 µM relative to ghrelin [%],Functional Assay EC50 (aequorin bioluminescence) [nM]
B2,100,15
B3,96,11.5
GSS(Octanoyl)FLSPEHQRVQQ [compound 13],97,17
B4,92,22

# Biological target: T1, human GHS receptor 1a
# Experiment: competitive filter binding vs [35S]-MK-677, membranes of HEK 293-AEQ17 cells transfected with human GHS receptor
# Description: (§1) Binding of [³⁵S]-MK-677 to crude membranes prepared from HEK 293-aequorin stable cell lines was performed as described in Chen et al., Bioorg. Med. Chem. Lett. 1996, 6, 2163-2169, and Howard et al., Science 1996, 273, 974-977. Prior to the binding assay, the HEK 293-AEQ17 cells (8×10⁵ cells plated 18 hours before transfection in a T75 flask) were transfected with 22 μg of human GHS receptor plasmid using 264 μg lipofectamine.
row,Binder,IC50 [nM]
1,B1,0.42
2,GSS(Octanoyl)FLSPEHQRVQQ [compound 13],9.6
3,GS[Dap](Octanoyl)FLSPEHQRVQQ [compound 14],8

# Biological target: T1, human GHS receptor 1a
# Experiment: as above
# Remark: another data set of the same source
# Description: as §1
row,Binder,IC50 [nM]
1,B2,0.16
2,B3,55
3,GSS(Octanoyl)FLSPEHQRVQQ [compound 13],9.6
4,B4,0.77

# Source: US20030186844A1 (MERCK, published 2003)
